The experiment has as its target Escherichia coli CTP synthase (ecCTPS), wild type (Escherichia coli) (UniProt P0A7E5). As to the kind of experiment: cryo-EM structure.

What is called stoichiometry N is the number of molecules, sites or subunits per partner or assembly. Substance “Escherichia coli CTP synthase (ecCTPS), wild type (from UniProt P0A7E5 1-545) (enzyme)” gave a stoichiometry N of 4.

Values taken from publication doi:10.1101/2023.10.19.563106.
